Experimental findings from US20260250318A1, “COMPOSITIONS AND METHODS FOR CROSSING THE BLOOD BRAIN BARRIER” (VOYAGER THERAPEUTICS, INC., priority 2022, published 2026) are described below.

Values joined by “and” are separate entries in the source; they are usually repeats but may differ in a detail not shown here. Equal entries are not always repeated. Where two headings read alike, the source gives them in different places.

The target in experiment [1] is T1, His-tagged ALPL (recombinant, soluble; SPR, BLI and ELISA of Examples 8 and 13) (UniProt P05186 18-502).
T1 construct: also called ALPL receptor; alkaline phosphatase tissue-nonspecific isozyme
T1 sequence: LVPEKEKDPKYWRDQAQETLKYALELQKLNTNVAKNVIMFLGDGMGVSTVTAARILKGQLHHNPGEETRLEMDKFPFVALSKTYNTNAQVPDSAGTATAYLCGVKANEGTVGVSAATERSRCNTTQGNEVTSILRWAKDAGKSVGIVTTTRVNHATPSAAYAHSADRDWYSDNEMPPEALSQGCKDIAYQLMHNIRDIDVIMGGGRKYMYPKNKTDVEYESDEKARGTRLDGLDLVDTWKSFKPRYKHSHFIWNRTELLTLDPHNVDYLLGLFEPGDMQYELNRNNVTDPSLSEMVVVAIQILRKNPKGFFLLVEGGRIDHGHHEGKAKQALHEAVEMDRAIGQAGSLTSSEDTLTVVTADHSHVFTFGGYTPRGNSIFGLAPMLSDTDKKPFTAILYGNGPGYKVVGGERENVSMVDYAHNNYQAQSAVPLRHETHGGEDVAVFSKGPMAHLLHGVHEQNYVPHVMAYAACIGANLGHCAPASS
The experiment is described as follows: SPR (Biacore 8K), TTM-002 immobilized on CM5 chip at approximately 6300RU, His-tagged ALPL as analyte; value in the text differs from Table 41. A general note: Surface plasmon resonance follows binding to a sensor surface in real time, without labels.

Experiment [2] deals with T2, ALPL with a deletion of the ER localization signal (ALPL transcript variant 2, NM_001127501) (human, UniProt P05186 56-501).
T2 sequence: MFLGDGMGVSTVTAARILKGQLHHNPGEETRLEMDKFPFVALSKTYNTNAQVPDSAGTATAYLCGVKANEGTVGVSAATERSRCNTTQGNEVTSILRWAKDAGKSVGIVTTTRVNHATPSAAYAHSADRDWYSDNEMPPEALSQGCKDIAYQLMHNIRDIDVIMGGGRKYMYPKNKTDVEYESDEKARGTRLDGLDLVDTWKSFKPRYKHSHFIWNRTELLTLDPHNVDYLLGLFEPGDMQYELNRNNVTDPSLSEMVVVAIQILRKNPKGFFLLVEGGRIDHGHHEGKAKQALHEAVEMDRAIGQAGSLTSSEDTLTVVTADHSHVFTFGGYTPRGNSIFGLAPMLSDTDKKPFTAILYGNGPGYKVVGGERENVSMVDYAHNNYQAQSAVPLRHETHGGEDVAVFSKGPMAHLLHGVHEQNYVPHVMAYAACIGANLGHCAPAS
In words: cell-based or functional assay.

For experiment [3], the target named is T1, His-tagged ALPL (recombinant, soluble; …).
The target of experiment [4] is T3, human ALPL expressed on cells (alkaline phosphatase tissue-nonspecific isozyme, NM_000478.4) (human, UniProt P05186 18-501).
T3 sequence: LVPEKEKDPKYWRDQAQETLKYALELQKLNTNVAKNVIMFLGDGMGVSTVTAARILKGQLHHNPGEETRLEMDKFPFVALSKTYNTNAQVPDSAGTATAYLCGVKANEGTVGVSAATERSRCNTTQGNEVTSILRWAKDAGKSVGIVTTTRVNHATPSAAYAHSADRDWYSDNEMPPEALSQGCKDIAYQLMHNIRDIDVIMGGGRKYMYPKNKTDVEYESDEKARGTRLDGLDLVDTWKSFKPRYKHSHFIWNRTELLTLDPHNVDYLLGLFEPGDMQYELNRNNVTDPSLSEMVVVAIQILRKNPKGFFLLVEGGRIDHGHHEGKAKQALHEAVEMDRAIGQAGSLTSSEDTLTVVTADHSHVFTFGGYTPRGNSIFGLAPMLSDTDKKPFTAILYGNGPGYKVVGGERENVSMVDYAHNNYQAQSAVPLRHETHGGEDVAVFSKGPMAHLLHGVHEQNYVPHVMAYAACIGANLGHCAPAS
The experiment is described as follows: cell-based or functional assay.

Experiment [5] addresses T4, library of over 5,500 cDNAs overexpressed in human cells (ALPL) (Homo sapiens, UniProt P05186).
T4 construct: expressed in transfected cells
T4 sequence (P05186 18-501): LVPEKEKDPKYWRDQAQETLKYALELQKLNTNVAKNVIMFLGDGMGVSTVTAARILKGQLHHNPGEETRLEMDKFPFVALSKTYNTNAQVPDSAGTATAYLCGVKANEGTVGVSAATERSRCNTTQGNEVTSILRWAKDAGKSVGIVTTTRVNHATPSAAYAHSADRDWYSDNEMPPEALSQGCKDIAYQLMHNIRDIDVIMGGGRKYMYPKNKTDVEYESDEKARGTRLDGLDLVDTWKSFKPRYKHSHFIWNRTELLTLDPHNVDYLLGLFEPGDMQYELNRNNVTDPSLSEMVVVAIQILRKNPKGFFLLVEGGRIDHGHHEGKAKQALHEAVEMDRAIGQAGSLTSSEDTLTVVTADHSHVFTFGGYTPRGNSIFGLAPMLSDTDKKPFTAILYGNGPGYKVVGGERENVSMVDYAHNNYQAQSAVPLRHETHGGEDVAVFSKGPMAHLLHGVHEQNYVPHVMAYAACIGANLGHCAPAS
The experiment is described as follows: Cell binding array assay for receptor identification. Conditions: detected with anti-AAV9 antibody. The source says:
A cell binding array assay was then used to identify a receptor for the TTM-001 and TTM-002 capsid variants. Briefly, a library of over 5,500 cDNAs was overexpressed in human cells. Cells were contacted with a test ligand, e.g., AAV viral particles comprising a TTM-001 capsid variant or an AAV9 control capsid, which was applied to the array. Binding of the TTM-001 capsid variant or the AAV9 control capsid to the cells was detected using an anti-AAV9 antibody followed by a labeled anti-IgG detection antibody. […] This interacting protein was identified as the GPI-anchored protein, alkaline phosphatase issue-nonspecific isozyme (NM_000478.4, which is incorporated by reference herein) (ALPL). ALPL is part of a family of membrane-bound glycoproteins that hydrolyze monophosphate esters at a high pH (see, e.g., Weiss et al., Isolation and characterization of a cDNA encoding a human liver/bone/kidney-type alkaline phosphatase. Proc. Natl. Acad. Sci., 83:7182-7186 (1986), the contents of which are hereby incorporated by reference in their entirety).

B1: TTM-002 capsid variant (AAV particle comprising the TTM-002 AAV9 capsid variant) (other)
chain 1: MAADGYLPDWLEDNLSEGIREWWALKPGAPQPKANQQHQDNARGLVLPGYKYLGPGNGLDKGEPVNAADAAALEHDKAYDQQLKAGDNPYLKYNHADAEFQERLKEDTSFGGNLGRAVFQAKKRLLEPLGLVEEAAKTAPGKKRPVEQSPQEPDSSAGIGKSGAQPAKKRLNFGQTGDTESVPDPQPIGEPPAAPSGVGSLTMASGGGAPVADNNEGADGVGSSSGNWHCDSQWLGDRVITTSTRTWALPTYNNHLYKQISNSTSGGSSNDNAYFGYSTPWGYFDFNRFHCHFSPRDWQRLINNNWGFRPKRLNFKLFNIQVKEVTDNNGVKTIANNLTSTVQVFTDSDYQLPYVLGSAHEGCLPPFPADVFMIPQYGYLTLNDGSQAVGRSSFYCLEYFPSQMLRTGNNFQFSYEFENVPFHSSYAHSQSLDRLMNPLIDQYLYYLSKTINGHDSPHKSGQNQQTLKFSVAGPSNMAVQGRNYIPGPSYRQQRVSTTVTQNNNSEFAWPGASSWALNGRNSLMNPGPAMASHKEGEDRFFPLSGSLIFGKQGTGRDNVDADKVMITNEEEIKTTNPVATESYGQVATNHQSAQAQAQTGWVQNQGILPGMVWQDRDVYLQGPIWAKIPHTDGNFHPSPLMGGFGMKHPPPQILIKNTPVPADPPTAFNKDKLNSFITQYSTGQVSVEIEWELQKENSKRWNPEIQYTSNYYKSNNVEFAVNTEGVYSEPRPIGTRYLTRNL
chain 2: TAPGKKRPVEQSPQEPDSSAGIGKSGAQPAKKRLNFGQTGDTESVPDPQPIGEPPAAPSGVGSLTMASGGGAPVADNNEGADGVGSSSGNWHCDSQWLGDRVITTSTRTWALPTYNNHLYKQISNSTSGGSSNDNAYFGYSTPWGYFDFNRFHCHFSPRDWQRLINNNWGFRPKRLNFKLFNIQVKEVTDNNGVKTIANNLTSTVQVFTDSDYQLPYVLGSAHEGCLPPFPADVFMIPQYGYLTLNDGSQAVGRSSFYCLEYFPSQMLRTGNNFQFSYEFENVPFHSSYAHSQSLDRLMNPLIDQYLYYLSKTINGHDSPHKSGQNQQTLKFSVAGPSNMAVQGRNYIPGPSYRQQRVSTTVTQNNNSEFAWPGASSWALNGRNSLMNPGPAMASHKEGEDRFFPLSGSLIFGKQGTGRDNVDADKVMITNEEEIKTTNPVATESYGQVATNHQSAQAQAQTGWVQNQGILPGMVWQDRDVYLQGPIWAKIPHTDGNFHPSPLMGGFGMKHPPPQILIKNTPVPADPPTAFNKDKLNSFITQYSTGQVSVEIEWELQKENSKRWNPEIQYTSNYYKSNNVEFAVNTEGVYSEPRPIGTRYLTRNL
chain 3: MASGGGAPVADNNEGADGVGSSSGNWHCDSQWLGDRVITTSTRTWALPTYNNHLYKQISNSTSGGSSNDNAYFGYSTPWGYFDFNRFHCHFSPRDWQRLINNNWGFRPKRLNFKLFNIQVKEVTDNNGVKTIANNLTSTVQVFTDSDYQLPYVLGSAHEGCLPPFPADVFMIPQYGYLTLNDGSQAVGRSSFYCLEYFPSQMLRTGNNFQFSYEFENVPFHSSYAHSQSLDRLMNPLIDQYLYYLSKTINGHDSPHKSGQNQQTLKFSVAGPSNMAVQGRNYIPGPSYRQQRVSTTVTQNNNSEFAWPGASSWALNGRNSLMNPGPAMASHKEGEDRFFPLSGSLIFGKQGTGRDNVDADKVMITNEEEIKTTNPVATESYGQVATNHQSAQAQAQTGWVQNQGILPGMVWQDRDVYLQGPIWAKIPHTDGNFHPSPLMGGFGMKHPPPQILIKNTPVPADPPTAFNKDKLNSFITQYSTGQVSVEIEWELQKENSKRWNPEIQYTSNYYKSNNVEFAVNTEGVYSEPRPIGTRYLTRNL
Regarding B1, the kon (usually the second-order rate constant of association) in experiment [1] came out at 32000 M⁻¹ s⁻¹. For the same molecule, the “fold change in luciferase activity relative to the pCMV6 control cells (cells transfected with ALPL comprising a deletion of the ER localization signal)” value in experiment [2] was determined as 2 fold. In experiment [3], the Kd (commonly the equilibrium constant for the complex coming apart) was 32 nM and 26.8 nM and 47 nM and 52.3 nM; the kon was 39800 M⁻¹ s⁻¹ and 43600 M⁻¹ s⁻¹ and 39400 M⁻¹ s⁻¹ and 98000 M⁻¹ s⁻¹. The “luciferase activity, fold change relative to pCMV6 transfected HEK 293T cells (ALPL transfected cells)” value in experiment [4] was 44 fold.

B2: TTM-001: AAV9 capsid variant comprising SPHSKA (SEQ ID NO: 941) in loop IV (protein)
chain 1: MAADGYLPDWLEDNLSEGIREWWALKPGAPQPKANQQHQDNARGLVLPGYKYLGPGNGLDKGEPVNAADAAALEHDKAYDQQLKAGDNPYLKYNHADAEFQERLKEDTSFGGNLGRAVFQAKKRLLEPLGLVEEAAKTAPGKKRPVEQSPQEPDSSAGIGKSGAQPAKKRLNFGQTGDTESVPDPQPIGEPPAAPSGVGSLTMASGGGAPVADNNEGADGVGSSSGNWHCDSQWLGDRVITTSTRTWALPTYNNHLYKQISNSTSGGSSNDNAYFGYSTPWGYFDFNRFHCHFSPRDWQRLINNNWGFRPKRLNFKLFNIQVKEVTDNNGVKTIANNLTSTVQVFTDSDYQLPYVLGSAHEGCLPPFPADVFMIPQYGYLTLNDGSQAVGRSSFYCLEYFPSQMLRTGNNFQFSYEFENVPFHSSYAHSQSLDRLMNPLIDQYLYYLSKTINGSGSPHSKAQNQQTLKFSVAGPSNMAVQGRNYIPGPSYRQQRVSTTVTQNNNSEFAWPGASSWALNGRNSLMNPGPAMASHKEGEDRFFPLSGSLIFGKQGTGRDNVDADKVMITNEEEIKTTNPVATESYGQVATNHQSAQAQAQTGWVQNQGILPGMVWQDRDVYLQGPIWAKIPHTDGNFHPSPLMGGFGMKHPPPQILIKNTPVPADPPTAFNKDKLNSFITQYSTGQVSVEIEWELQKENSKRWNPEIQYTSNYYKSNNVEFAVNTEGVYSEPRPIGTRYLTRNL
chain 2: GSGSPHSKAQNQQT
Consider B2, for which the “interaction with ALPL in cell binding array” value in experiment [5] was “a unique interaction with the TTM-001 capsid variant”.
